The text below walks through data of patent US20140161725A1 (H LEE MOFFITT CANCER CENTER AND RESEARCH INSTITUTE, published 2014).

Assay [1] concerns the target human carbonic anhydrase 9 (CAIX) (human) (UniProt Q16790). In words: in vivo fluorescence imaging of CAIX positive MDA-mb-231 tumour 24 h after injection; competitor unlabeled CAIX mAb.
The target in assay [2] is T1, human Toll-like receptor 2 (TLR2) (human, UniProt O60603 21-784). Description: cell-based or functional assay.
Assay [3] deals with T1, human Toll-like receptor 2 (TLR2). Description: in cyto competition binding assay.
Assay [4] has the same target. Description: Eu TRF competition binding; competitor compound 11.
For assay [5] the target is unchanged. Description: Eu TRF competition binding on SU.86.86 cells; competitor 90 nM compound 11.
For assay [6] the target is unchanged. In words: Eu TRF competition binding on HEK-293/hTLR2 cells; competitor 90 nM compound 11.
The target is the same in assay [7]. Description: Eu TRF saturation binding on Capan-I cells.
Assay [8] has the same target. Description: Eu TRF saturation binding on SU.86.86 cells.
The target is the same in assay [9]. Description: Eu TRF saturation binding on HEK-293/hTLR2 cells.
Assay [10] shares this target. Description: Eu TRF saturation binding on TLR2 expressing cells.
The target is the same in assay [11]. Description: time-resolved fluorescence saturation binding assay.
Assay [12] shares this target. Description: Eu TRF saturation binding on Capan-I cells; non-specific binding with 1 µM Pam2CSK4.
For assay [13] the target is unchanged. Description: Eu TRF saturation binding on SU.86.86 cells; non-specific binding with 1 µM Pam2CSK4.
Assay [14] shares this target. Description: Eu TRF saturation binding on HEK-293/hTLR2 cells; non-specific binding with 1 µM Pam2CSK4.
Assay [15] shares this target. Description: time-resolved fluorescence competitive binding assay.
Assay [16] shares this target. In words: in vivo fluorescence imaging of TLR2 expressing SU.86.86 xenografts 24 h post-injection; competitor 20-fold excess Pam2CSK4.

Where no end group is shown, it is not given here. The star is where a group is joined. Dhc(Pam)2 = S-[2,3-bis(palmitoyl)oxy-(R)-propyl]-cysteine, CCCCCCCCCCCCCCCC(=O)OC[C@H](CSC[C@H](N)C(=O)*)OC(=O)CCCCCCCCCCCCCCC; PEGO = not defined here

T1 sequence (O60603 21-784): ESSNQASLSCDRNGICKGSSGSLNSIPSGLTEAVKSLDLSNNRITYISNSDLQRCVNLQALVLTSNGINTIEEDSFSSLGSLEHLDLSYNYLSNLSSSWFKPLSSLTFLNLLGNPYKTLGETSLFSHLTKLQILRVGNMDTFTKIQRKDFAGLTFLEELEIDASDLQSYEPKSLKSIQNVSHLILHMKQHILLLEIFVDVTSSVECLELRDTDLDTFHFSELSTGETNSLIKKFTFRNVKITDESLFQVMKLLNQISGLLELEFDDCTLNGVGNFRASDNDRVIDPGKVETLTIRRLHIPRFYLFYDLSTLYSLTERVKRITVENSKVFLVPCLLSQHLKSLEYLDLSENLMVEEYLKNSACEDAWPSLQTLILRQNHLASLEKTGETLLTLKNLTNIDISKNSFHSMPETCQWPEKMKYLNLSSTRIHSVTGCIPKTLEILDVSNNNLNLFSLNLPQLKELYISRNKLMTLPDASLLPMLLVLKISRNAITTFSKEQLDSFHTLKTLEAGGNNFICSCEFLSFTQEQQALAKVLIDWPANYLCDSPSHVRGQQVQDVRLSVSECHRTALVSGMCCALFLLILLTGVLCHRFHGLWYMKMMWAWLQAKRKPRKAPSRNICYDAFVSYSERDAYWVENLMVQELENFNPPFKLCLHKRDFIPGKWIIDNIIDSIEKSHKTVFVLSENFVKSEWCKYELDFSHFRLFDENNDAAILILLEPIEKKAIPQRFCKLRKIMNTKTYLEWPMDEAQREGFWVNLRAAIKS

On to “CA9Ab-680 (anti-human CAIX monoclonal antibody, Clone 303123, R&D systems, conjugated to VivoTag-S 680)”, for which the fold decrease of probe fluorescence in the tumour after blocking with unlabeled CAIX mAb in assay [1] is 1.7 times.
On to “Compound 10: Ac-PEGO-Cys(S-[2,3-bis(palmitoyl)oxy-(R)-propyl])-Gly-DSer-PEGO-NH2 (peptide)”, for which the fold of enhancement of luminescence at 1 µg/mL vs SAA at 10 µg/mL in assay [2] came out at 5.2 fold. The fold of enhancement of luminescence vs SAA at 1 µg/mL in [2] is 14 fold. For the same molecule, the Ki (usually a measure of affinity in units of concentration, obtained from inhibition or displacement) in assay [3] is 24 nM; in assay [4], below 100 nM; in [5], 91 nM; in assay [6], 25 nM.
As for “Compound 11: Eu-DTPA-PEGO-Cys(S-[2,3-bis(palmitoyl)oxy-(R)-propyl])-Gly-DSer-PEGO-NH2 (peptide)”, the figures for the Bmax in assay [7], in [8] and in assay [9] were 951000 AFU, 270000 AFU and 114000 AFU, respectively. The Kd (usually the constant that tells how readily two partners part at equilibrium) in [10] is below 100 nM; in assay [11] it was 30 nM; in [12] it was 78 nM; in assay [13], 74 nM; in assay [14], 34 nM.
For “Compound 12: Mpr-PEGO-Cys(S-[2,3-bis(palmitoyl)oxy-(R)-propyl])-Gly-DSer-PEGO-NH2 (peptide)”, the Ki in assay [4] was below 100 nM; in [5], 25 nM.
Take “Compound 13: IRDye800CW-Mpr-PEGO-Cys(S-[2,3-bis(palmitoyl)oxy-(R)-propyl])-Gly-DSer-PEGO-NH2 (peptide)”: the Ki in assay [4] is below 100 nM; in [15] it was 10 nM; in [5] it was 67 nM; in assay [6], 11 nM. The molecule further registered an unblocked/blocked tumor fluorescence (fold) in assay [16] of 1.94 fold.

B1: Compound 9: Ac-PEGO-Cys(S-[2,3-bis(palmitoyl)oxy-(R)-propyl])-Gly-Ser-Gln-Asn-Leu-Ala-Ser-Leu-Glu-Glu-NH2 (peptide)
peptide: {Ac-PEGO-Dhc(Pam)2}-GSQNLASLEE-NH2
modifications: reading uncertain
Consider B1, for which, in assay [2], the “fold of enhancement of luminescence at 1 µg/mL vs SAA at 10 µg/mL” value was 4.8 fold and the “fold of enhancement of luminescence vs SAA at 1 µg/mL” value was determined as 13 fold.

B2: Compound 8: Ac-PEGO-Cys(S-[2,3-bis(palmitoyl)oxy-(R)-propyl])-Ser-Arg-Phe-Asp-Glu-Asp-Asp-Leu-Glu-NH2 (peptide)
peptide: SRFDEDDLE-NH2
modifications: not fully specified (some residues, N-terminus)
Turning to B2, in assay [2], the “fold of enhancement of luminescence at 1 µg/mL vs SAA at 10 µg/mL” value was 4.2 fold and the “fold of enhancement of luminescence vs SAA at 1 µg/mL” value was found to be 11 fold.
